Experimental data reported in US20250262210A1 (TRUSTEES OF COLUMBIA UNIVERSITY IN THE CITY OF NEW YORK, published 2025).

Tests used:
Assay in all cases: IP/MS, LZTR1 wild type-FLAG, U87
[1] = biological target: EIF2AK4 (human, UniProt Q9P2K8 1-1649, limits assumed)
In short: (§1)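 Extracted peptides in 3% acetonitrile/0.1% formic acid ran on a 50 cm C18 column into an Orbitrap Fusion, with MaxQuant identification and spectral counting.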

[2] = biological target: PAPPA (human, UniProt Q13219 82-1627)
In short: as §1

[3] = biological target: TRIO (human, UniProt O75962 1-3097, limits assumed)
In short: as §1

[4] = biological target: T1, GTF3C2 (human, UniProt Q8WUA4 1-911, limits assumed)
T1 sequence (looked up): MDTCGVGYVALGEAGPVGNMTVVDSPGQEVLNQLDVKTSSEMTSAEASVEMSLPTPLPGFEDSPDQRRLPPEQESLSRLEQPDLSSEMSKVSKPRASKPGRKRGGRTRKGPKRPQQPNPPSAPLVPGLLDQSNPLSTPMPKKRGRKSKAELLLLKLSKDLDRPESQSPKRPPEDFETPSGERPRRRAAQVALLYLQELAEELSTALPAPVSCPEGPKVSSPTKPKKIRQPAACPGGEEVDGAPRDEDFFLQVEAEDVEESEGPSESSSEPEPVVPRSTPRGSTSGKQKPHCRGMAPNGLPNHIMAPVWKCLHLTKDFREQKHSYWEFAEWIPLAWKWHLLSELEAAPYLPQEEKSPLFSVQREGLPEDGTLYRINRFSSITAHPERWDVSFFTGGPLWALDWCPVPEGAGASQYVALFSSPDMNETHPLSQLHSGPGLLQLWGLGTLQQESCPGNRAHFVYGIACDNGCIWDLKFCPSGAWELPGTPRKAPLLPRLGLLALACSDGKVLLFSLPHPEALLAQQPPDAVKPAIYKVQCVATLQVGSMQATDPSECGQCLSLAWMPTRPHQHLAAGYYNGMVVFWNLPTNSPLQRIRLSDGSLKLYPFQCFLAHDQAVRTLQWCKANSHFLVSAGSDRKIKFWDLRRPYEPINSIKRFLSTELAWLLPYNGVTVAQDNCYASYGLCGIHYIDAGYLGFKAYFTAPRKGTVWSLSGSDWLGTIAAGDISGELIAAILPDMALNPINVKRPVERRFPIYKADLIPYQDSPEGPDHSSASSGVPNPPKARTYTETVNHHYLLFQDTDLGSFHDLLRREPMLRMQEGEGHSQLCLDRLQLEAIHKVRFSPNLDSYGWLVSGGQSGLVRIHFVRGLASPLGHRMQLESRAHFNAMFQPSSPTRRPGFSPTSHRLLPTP
In short: as §1

[5] = biological target: TTC27 (human, UniProt Q6P3X3 1-843)
In short: as §1

[6] = biological target: T2, WDR6 (human, UniProt Q9NNW5 1-1121)
T2 sequence (looked up): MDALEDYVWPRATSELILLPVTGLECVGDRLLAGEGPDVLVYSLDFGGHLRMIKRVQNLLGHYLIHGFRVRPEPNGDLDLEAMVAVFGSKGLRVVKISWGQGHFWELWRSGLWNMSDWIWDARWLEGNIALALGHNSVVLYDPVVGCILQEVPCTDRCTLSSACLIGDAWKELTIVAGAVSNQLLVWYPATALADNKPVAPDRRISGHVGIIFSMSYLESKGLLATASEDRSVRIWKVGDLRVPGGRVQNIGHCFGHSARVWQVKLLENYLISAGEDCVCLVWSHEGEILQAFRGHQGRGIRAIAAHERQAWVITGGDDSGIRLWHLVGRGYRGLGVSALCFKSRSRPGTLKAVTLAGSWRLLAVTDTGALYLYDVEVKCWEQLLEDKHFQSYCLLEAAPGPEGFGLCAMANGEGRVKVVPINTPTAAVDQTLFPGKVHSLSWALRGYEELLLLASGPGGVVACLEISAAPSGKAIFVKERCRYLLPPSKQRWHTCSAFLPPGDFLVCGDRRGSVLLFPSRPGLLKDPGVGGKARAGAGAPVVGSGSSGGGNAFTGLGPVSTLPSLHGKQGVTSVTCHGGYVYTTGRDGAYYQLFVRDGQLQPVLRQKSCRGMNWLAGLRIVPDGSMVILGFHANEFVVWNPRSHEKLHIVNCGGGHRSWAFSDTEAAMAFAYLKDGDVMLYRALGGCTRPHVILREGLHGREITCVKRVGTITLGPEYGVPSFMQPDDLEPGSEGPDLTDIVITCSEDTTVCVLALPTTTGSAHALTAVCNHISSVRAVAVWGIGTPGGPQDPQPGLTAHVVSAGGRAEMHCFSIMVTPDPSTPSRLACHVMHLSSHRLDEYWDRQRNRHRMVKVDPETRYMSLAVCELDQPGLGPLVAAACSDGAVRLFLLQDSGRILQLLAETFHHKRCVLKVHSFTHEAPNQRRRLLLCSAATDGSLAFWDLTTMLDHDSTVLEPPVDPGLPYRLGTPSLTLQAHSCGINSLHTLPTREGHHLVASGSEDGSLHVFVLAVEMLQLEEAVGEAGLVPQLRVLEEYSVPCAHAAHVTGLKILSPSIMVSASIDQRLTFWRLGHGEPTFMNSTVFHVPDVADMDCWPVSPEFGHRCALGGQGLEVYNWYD
In short: as §1

Measured: binding result

Chain of PAPPA (Q13219 82-1627 limits assumed): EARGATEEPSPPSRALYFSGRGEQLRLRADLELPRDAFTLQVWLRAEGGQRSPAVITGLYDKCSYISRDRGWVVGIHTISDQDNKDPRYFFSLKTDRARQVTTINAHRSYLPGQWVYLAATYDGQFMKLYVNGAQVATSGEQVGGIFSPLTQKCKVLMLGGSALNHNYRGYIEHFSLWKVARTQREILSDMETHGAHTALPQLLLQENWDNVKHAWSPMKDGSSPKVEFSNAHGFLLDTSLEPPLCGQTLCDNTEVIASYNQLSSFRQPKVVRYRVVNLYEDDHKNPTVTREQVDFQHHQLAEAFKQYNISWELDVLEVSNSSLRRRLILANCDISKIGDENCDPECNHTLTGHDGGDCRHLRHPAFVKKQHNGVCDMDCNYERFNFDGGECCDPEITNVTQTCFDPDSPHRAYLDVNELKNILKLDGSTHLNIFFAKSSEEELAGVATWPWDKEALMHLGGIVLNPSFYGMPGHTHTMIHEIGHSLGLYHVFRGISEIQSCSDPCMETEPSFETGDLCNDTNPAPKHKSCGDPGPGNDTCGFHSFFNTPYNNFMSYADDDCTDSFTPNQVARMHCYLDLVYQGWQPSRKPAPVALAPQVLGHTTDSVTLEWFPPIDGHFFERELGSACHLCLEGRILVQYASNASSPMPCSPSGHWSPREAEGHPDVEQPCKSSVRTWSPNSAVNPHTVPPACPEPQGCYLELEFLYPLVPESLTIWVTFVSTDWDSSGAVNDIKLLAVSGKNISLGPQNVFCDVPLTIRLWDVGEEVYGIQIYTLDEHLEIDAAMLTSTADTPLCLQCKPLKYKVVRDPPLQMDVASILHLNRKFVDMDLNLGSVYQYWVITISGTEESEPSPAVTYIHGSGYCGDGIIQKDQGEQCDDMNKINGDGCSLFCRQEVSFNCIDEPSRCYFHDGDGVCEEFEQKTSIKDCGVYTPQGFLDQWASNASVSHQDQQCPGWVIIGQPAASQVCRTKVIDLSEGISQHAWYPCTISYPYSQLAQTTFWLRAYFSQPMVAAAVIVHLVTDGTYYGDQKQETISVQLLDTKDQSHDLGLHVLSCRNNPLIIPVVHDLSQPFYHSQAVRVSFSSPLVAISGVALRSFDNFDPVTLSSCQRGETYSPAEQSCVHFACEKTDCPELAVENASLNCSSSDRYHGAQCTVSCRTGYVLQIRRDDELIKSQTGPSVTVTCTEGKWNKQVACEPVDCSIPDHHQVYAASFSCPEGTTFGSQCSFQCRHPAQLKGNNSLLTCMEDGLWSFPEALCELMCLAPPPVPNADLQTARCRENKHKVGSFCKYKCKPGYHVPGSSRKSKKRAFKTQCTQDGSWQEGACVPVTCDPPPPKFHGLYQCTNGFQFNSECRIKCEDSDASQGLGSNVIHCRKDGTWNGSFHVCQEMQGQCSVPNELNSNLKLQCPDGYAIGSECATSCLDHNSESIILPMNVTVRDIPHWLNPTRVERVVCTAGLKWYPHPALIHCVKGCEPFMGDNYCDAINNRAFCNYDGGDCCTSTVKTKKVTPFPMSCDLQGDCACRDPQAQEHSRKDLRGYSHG
Chain of EIF2AK4 (Q9P2K8 whole entry, the tested form may be a part): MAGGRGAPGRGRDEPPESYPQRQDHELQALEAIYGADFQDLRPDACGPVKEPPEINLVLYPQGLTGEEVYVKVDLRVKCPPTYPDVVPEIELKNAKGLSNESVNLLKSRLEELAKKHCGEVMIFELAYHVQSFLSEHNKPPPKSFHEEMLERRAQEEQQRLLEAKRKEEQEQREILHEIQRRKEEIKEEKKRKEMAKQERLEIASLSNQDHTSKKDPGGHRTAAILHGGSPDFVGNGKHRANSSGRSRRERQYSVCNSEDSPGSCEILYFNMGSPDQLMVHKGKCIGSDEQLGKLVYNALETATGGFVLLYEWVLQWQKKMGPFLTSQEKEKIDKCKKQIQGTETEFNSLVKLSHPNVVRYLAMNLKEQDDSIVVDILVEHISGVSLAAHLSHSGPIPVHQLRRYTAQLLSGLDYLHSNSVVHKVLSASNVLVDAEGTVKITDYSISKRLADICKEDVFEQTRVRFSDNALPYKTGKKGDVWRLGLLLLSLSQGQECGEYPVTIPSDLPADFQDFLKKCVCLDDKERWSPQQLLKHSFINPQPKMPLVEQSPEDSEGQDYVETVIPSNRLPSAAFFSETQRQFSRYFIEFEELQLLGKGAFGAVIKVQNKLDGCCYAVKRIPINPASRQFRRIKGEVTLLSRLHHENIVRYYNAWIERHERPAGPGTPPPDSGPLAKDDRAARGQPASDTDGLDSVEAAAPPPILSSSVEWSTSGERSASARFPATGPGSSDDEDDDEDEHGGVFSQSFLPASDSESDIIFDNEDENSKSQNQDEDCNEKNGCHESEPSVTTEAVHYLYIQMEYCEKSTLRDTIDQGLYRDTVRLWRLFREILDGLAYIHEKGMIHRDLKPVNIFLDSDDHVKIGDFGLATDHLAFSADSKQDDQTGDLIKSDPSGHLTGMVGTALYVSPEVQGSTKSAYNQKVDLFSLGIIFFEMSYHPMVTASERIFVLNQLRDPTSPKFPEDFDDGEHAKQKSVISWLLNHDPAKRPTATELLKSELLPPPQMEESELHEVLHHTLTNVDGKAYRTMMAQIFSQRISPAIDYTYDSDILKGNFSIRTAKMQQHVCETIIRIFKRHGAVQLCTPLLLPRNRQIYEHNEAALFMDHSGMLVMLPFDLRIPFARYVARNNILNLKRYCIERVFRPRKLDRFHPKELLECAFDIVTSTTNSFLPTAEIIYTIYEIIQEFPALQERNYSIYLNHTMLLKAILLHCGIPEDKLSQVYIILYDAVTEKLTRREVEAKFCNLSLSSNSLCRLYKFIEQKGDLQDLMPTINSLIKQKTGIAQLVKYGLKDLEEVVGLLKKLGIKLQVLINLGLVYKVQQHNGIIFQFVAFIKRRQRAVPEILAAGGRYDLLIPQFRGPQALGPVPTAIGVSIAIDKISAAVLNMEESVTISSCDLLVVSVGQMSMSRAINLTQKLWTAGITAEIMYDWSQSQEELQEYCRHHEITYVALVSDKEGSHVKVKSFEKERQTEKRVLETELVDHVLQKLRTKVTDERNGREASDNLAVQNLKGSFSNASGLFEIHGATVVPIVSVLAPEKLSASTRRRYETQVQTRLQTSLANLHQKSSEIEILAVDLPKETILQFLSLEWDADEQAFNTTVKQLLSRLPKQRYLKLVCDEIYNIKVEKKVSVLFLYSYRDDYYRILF

B1: LZTR1-FLAG (other, human, UniProt Q8N653 1-840, looked up)
chain: MAGPGSTGGQIGAAALAGGARSKVAPSVDFDHSCSDSVEYLTLNFGPFETVHRWRRLPPCDEFVGARRSKHTVVAYKDAIYVFGGDNGKTMLNDLLRFDVKDCSWCRAFTTGTPPAPRYHHSAVVYGSSMFVFGGYTGDIYSNSNLKNKNDLFEYKFATGQWTEWKIEGRLPVARSAHGATVYSDKLWIFAGYDGNARLNDMWTIGLQDRELTCWEEVAQSGEIPPSCCNFPVAVCRDKMFVFSGQSGAKITNNLFQFEFKDKTWTRIPTEHLLRGSPPPPQRRYGHTMVAFDRHLYVFGGAADNTLPNELHCYDVDFQTWEVVQPSSDSEVGGAEVPERACASEEVPTLTYEERVGFKKSRDVFGLDFGTTSAKQPTQPASELPSGRLFHAAAVISDAMYIFGGTVDNNIRSGEMYRFQFSCYPKCTLHEDYGRLWESRQFCDVEFVLGEKEECVQGHVAIVTARSRWLRRKITQARERLAQKLEQEAAPVPREAPGVAAGGARPPLLHVAIREAEARPFEVLMQFLYTDKIKYPRKGHVEDVLLIMDVYKLALSFQLCRLEQLCRQYIEASVDLQNVLVVCESAARLQLSQLKEHCLNFVVKESHFNQVIMMKEFERLSSPLIVEIVRRKQQPPPRTPLDQPVDIGTSLIQDMKAYLEGAGAEFCDITLLLDGHPRPAHKAILAARSSYFEAMFRSFMPEDGQVNISIGEMVPSRQAFESMLRYIYYGEVNMPPEDSLYLFAAPYYYGFYNNRLQAYCKQNLEMNVTVQNVLQILEAADKTQALDMKRHCLHIIVHQFTKVSKLPTLRSLSQQLLLDIIDSLASHISDKQCAELGADI
notes: Expressed in HEK 293T, HeLa or U87 cells; used as cell lysate; also called LZTR1 wild type-FLAG; LZTR1 WT; not shown: FLAG tag at the C-terminus
binds: all assays above
